Source: US12419977B2, “Radiopharmaceuticals” (AdvanCell Isotopes Pty Limited, priority 2022, dated 2025)

Tested on: PC3-PIP (PSMA expressing) and PC3 (PSMA deficient) tumours
Set-up: species or system male BALB/c nude mice
Settings: mouse, in vivo
Method: In vivo biodistribution studies of [^212Pb]Pb-ADVC001 were performed using an animal model of prostate cancer. Tumour xenographs were grown on opposite flanks of male BALB/c nude mice after inoculation with 10^6 PC3-PIP (PSMA expressing) and PC3 (PSMA deficient) cell lines. In this model, the PC3 tumours act as a control to assess the specificity of [^212Pb]Pb-ADVC001 uptake within PSMA expressing tumours. Once the tumours had reached 5-10 mm in size, 3 groups (representing 3 different time points) of 5 mice were injected with 300-325 kBq of [^212Pb]Pb-ADVC001 via the lateral tail vein. At 1, 4 and 24 hours after injection, mice were euthanised and multiple organs collected and weighed. Radioactivity in each organ was counted using a well-type gamma counter (counting window 218-258 keV). Activity levels of [^212Pb]Pb-ADVC001 expressed as percent injected dose/gram of tissue (% ID/g) measured from each organ over the 3 time points are given in Table 1 with the biodistribution plots presented in FIG. 1A. Activity accumulation over time of [^212Pb]Pb-ADVC001 for major organs (kidney, liver and bone marrow) along with tumour uptake is provided in FIG. 3. […] The biodistribution of [^212Pb]Pb-PSMA-I&T expressed as percent injected dose/gram of tissue (% ID/g) measured from each organ over the 3 time points is presented in FIG. 1B. […]

SMILES: NC(=O)CN1CCN(CC(N)=O)CCN(C(CCC(=O)N[C@H](Cc2ccc(O)c(I)c2)C(=O)N[C@H](Cc2ccccc2)C(=O)N[C@H](CCCCNC(=O)CCCCCCC(=O)NCCCC[C@H](NC(=O)N[C@@H](CCC(=O)O)C(=O)O)C(=O)O)C(=O)O)C(=O)O)CCN(CC(N)=O)CC1 (stereo partly shown) [[^212Pb]Pb-ADVC001, metal not drawn]
- tumour to kidney activity ratio: significantly higher
